The results in this text go back to patent publication US20250019461A1 (HUMMINGBIRD BIOSCIENCE PTE, published 2025).

The target of assay [1] is T1, human HER3 expressed at the cell surface (human, UniProt P21860 20-1342).
T1 construct: also called HEK293 HER3 O/E cells; HEK293 cells transfected with vector encoding human HER3
Description: flow cytometry on HEK293 cells overexpressing human HER3 (HEK293 O/E H3), antibody 20 µg/ml, FITC anti-Fc secondary; same antibody on WT HEK293: 1.91.

In assay [2] the target is T2, recombinant human HER3 polypeptide (His-tagged) (human, UniProt P21860 20-643, biotinylated in the HER2 (Example 4.1) and EGFR (Example 8.7) dimerisation ELISAs).
T2 construct: Soluble recombinant human HER3 preparations of the ELISA, BLI and dimerisation assays are gathered here; also called His-tagged human HER3; human HER3 polypeptide (Sino Biological); not shown: His tag
Description: plate ELISA of the EGFR:HER3 interaction: human EGFR-His coat, HER3-biotin 4 µg/ml and NRG 0.1 µg/ml with titrated antibody, avidin HRP detection; blocked partner EGFR-His.

The target of assay [3] is T2, recombinant human HER3 polypeptide …. Kind of assay: ELISA, plate coated with human HER3, antibody serially diluted.
Assay [4] deals with T1, human HER3 expressed at the cell surface. Kind of assay: flow cytometry on HEK293 cells overexpressing human HER3 (HEK293 O/E H3), antibody 20 µg/ml, FITC anti-Fc secondary; same antibody on WT HEK293: 0.60.
Assay [5] shares this target. The assay is described as above. This is another data set of the same source.
The target in another assay is T3, human HER2 (human, UniProt P04626 23-652).
T3 construct: also called human HER2 (Sino Biological)
Kind of assay: ELISA, plate coated with 0.1 µg/ml human HER2, antibody serially diluted.

The target in the next assay is T4, human EGFR (human, UniProt P00533 25-645).
T4 construct: also called human HER1 (EGFR) (Sino Biological)
Description: ELISA, plate coated with 0.1 µg/ml human EGFR, antibody serially diluted.

B1: anti-HER3 antibody clone LJM716 (antibody, V domains shown)
VH: EVQLLESGGGLVQPGGSLRLSCAASGFTFSSYAMSWVRQAPGKGLEWVSAINSQGKSTYYADSVKGRFTISRDNSKNTLYLQMNSLRAEDTAVYYCARWGDEGFDIWGQGTLVTVSS
VL: DIQMTQSPSSLSASVGDRVTITCRASQGISNWLAWYQQKPGKAPKLLIYGASSLQSGVPSRFSGSGSGTDFTLTISSLQPEDFATYYCQQYSSFPTTFGQGTKVEIK
For the molecule B1, in assay [1], the “% Parent (HER3 positive)” value amounted to 99.5%.

B2: MM-121 (antibody, V domains shown)
VH: EVQLLESGGGLVQPGGSLRLSCAASGFTFSAYNMRWVRQAPGKGLEWVSVIYPSGGATRYADSVKGRFTISRDNSKNTLYLQMNSLRAEDTAVYYCARGYYYYGMDVWGQGTLVTVSS
VL: QSVLTQPPSASGTPGQRVTISCSGSDSNIGRNYIYWYQQFPGTAPKLLIYRNNQRPSGVPDRISGSKSGTSASLAISGLRSEDEAEYHCGTWDDSLSGPVFGGGTKLTVL
With B2, in assay [2], the half-inhibitory concentration (IC50) stood at 0.0542 µM.

B3: anti-HER3 clone 10D1_c91 IgG1 (antibody, V domains shown)
VH: QVQLQESGPGLVKPSQTLSLTCTVSGYYITSGYSWHWIRQHPGKGLEWIGSIRYSGGTDYNPSLKSLATISADTSKNQFSLKLSSVTAADTAVYYCARMTTAPWYPFDYWGQGTAVTVSS
VL: DIQMTQSPSSVSASVGDRVTITCKASQIVGSNVAWYQQKPGKAPMPLIYSASYGYSGVPSRFSGSGSGTDFTLTISSLQPEDFATYYCQQYSSHPLTFGQGTKLEIKR
notes: Humanised 10D1 variant, IgG1 kappa; also called [18]
For the molecule B3, the “EC50 (read off the curve)” value in assay [3] was approximately 6 ng/mL.

B4: anti-HER3 clone 10D1 IgG1 (antibody)
heavy: not shown
light: DIVMTQSQKFMSTSVGDRVSVTCKASQIVGSNVAWYQQKPGQSPKPLIYSASYRYSGVPDRFTASGSGTDFTLTITNVQSEDLAEYFCQQYSSHPLTFGAGTKLELKRTVAAPSVFIFPPSDEQLKSGTASVVCLLNNFYPREAKVQWKVDNALQSGNSQESVTEQDSKDSTYSLSSTLTLSKADYEKHKVYACEVTHQGLSSPVTKSFNRGEC
notes: Human-mouse chimeric IgG1 kappa; also called 10D1P; 10D1 (parental)
As for B4, the “% Parent (HER3 positive)” value in assay [4] and in assay [5] was 99% in each case. The binding result in the assay with human HER2 and in the assay with human EGFR was “no binding (tested: about log -6.7 M (10 µg/ml per paragraph 597))” in each case.
